From the Human Domainome abundance scans (Beltran et al. 2025)
± gives the uncertainty stated by the source.

B1: Far upstream element-binding protein 1, residues 184 to 257; numbered along this chain, Q96AE4 (parent)
chain: GNAVQEIMIPASKAGLVIGKGGETIKQLQERAGVKMVMIQDGPQNTGADKPLRITGDPYKVQQAKEMVLELIRD

Variants of: B1
Assay: abundance fitness (aPCA) (normalised: wild type 0, dead -1); higher = more abundant; growth selection in yeast, the domain comes from the species named
Conditions: Homo sapiens

Going from I72T to I72D, the abundance fitness falls from -0.072 ± 0.034 to -0.408 ± 0.049.

First: I72W
Second: I72V
The abundance fitness of the first is lower: -0.353 ± 0.035 for the first, 0.011 ± 0.03 for the second.

Compared with I72G, I72P is lower in abundance fitness: -0.329 ± 0.028 for the first, -0.394 ± 0.036 for the second.

Compared with I72E, I72R is lower in abundance fitness: -0.295 ± 0.035 for the first, -0.498 ± 0.029 for the second.

Going from L71Y to L71I, the abundance fitness rises from -0.225 ± 0.055 to 0.025 ± 0.048.

L71A and L71T are within error of each other in abundance fitness: -0.1 ± 0.032 for the first, -0.066 ± 0.035 for the second.

Going from L71P to I39S, the abundance fitness rises from -0.481 ± 0.042 to -0.02 ± 0.03.

I39C and I39L are within error of each other in abundance fitness: -0.051 ± 0.042 for the first, -0.008 ± 0.032 for the second.

I39Q and I39K are within error of each other in abundance fitness: -0.032 ± 0.04 for the first, 0 ± 0.041 for the second.

Compared with I39Y, I39R is higher in abundance fitness: -0.08 ± 0.05 for the first, 0.006 ± 0.027 for the second.

First: V17G
Second: V17D
The abundance fitness of the first is lower: -0.599 ± 0.032 for the first, -0.479 ± 0.056 for the second.

Compared with V17K, V17I is higher in abundance fitness: -0.679 ± 0.052 for the first, -0.06 ± 0.048 for the second.

D41H and D41R are within error of each other in abundance fitness: -0.048 ± 0.05 for the first, -0.052 ± 0.028 for the second.

First: D41F
Second: D41L
The abundance fitness of the first is lower: -0.189 ± 0.055 for the first, -0.095 ± 0.031 for the second.

D41Y and L69I are within error of each other in abundance fitness: -0.139 ± 0.054 for the first, -0.102 ± 0.048 for the second.

L69A and L69R are within error of each other in abundance fitness: -0.01 ± 0.03 for the first, 0.011 ± 0.026 for the second.

L69Y and L69K are within error of each other in abundance fitness: 0.008 ± 0.045 for the first, -0.028 ± 0.035 for the second.

First: G22A
Second: G22M
The abundance fitness of the first is higher: 0.003 ± 0.032 for the first, -0.115 ± 0.042 for the second.

Compared with G21N, G21T is lower in abundance fitness: 0.05 ± 0.05 for the first, -0.05 ± 0.034 for the second.

Compared with G21C, G21I is lower in abundance fitness: -0.076 ± 0.044 for the first, -0.278 ± 0.053 for the second.

Compared with T46W, T46Q is higher in abundance fitness: -0.136 ± 0.035 for the first, -0.022 ± 0.037 for the second.

T46N and T46K are within error of each other in abundance fitness: -0.074 ± 0.05 for the first, -0.066 ± 0.033 for the second.

T46F and T46A are within error of each other in abundance fitness: -0.085 ± 0.052 for the first, -0.073 ± 0.033 for the second.

E23K and R31Q are within error of each other in abundance fitness: 0.062 ± 0.039 for the first, 0.017 ± 0.038 for the second.

Going from R31D to R31L, the abundance fitness falls from -0.028 ± 0.04 to -0.125 ± 0.031.

V34H and V34E are within error of each other in abundance fitness: -0.87 ± 0.096 for the first, -0.753 ± 0.046 for the second.

Compared with V34R, V34S is higher in abundance fitness: -0.974 ± 0.04 for the first, -0.639 ± 0.041 for the second.

Going from V34P to V34C, the abundance fitness rises from -0.918 ± 0.065 to -0.086 ± 0.043.

First: V34L
Second: A3I
The abundance fitness of the first is lower: -0.567 ± 0.036 for the first, 0.255 ± 0.053 for the second.

A3Y and A3S are within error of each other in abundance fitness: 0.158 ± 0.057 for the first, 0.196 ± 0.032 for the second.

A3K and A3T are within error of each other in abundance fitness: 0.181 ± 0.039 for the first, 0.235 ± 0.037 for the second.

G56L and G56I are within error of each other in abundance fitness: -1.28 ± 0.072 for the first, -1.14 ± 0.17 for the second.

Going from K13W to K13D, the abundance fitness rises from -0.3 ± 0.037 to -0.155 ± 0.048.

K13Q and K13Y are within error of each other in abundance fitness: -0.035 ± 0.04 for the first, -0.091 ± 0.056 for the second.

Compared with K13P, K13H is higher in abundance fitness: -0.659 ± 0.046 for the first, -0.032 ± 0.054 for the second.

K13I and K13A are within error of each other in abundance fitness: -0.015 ± 0.047 for the first, -0.094 ± 0.032 for the second.

First: K13G
Second: A32T
The abundance fitness of the first is lower: -0.231 ± 0.029 for the first, 0.02 ± 0.035 for the second.

Compared with A32D, A32I is higher in abundance fitness: -0.412 ± 0.055 for the first, -0.034 ± 0.052 for the second.

Compared with A32C, K60E is lower in abundance fitness: 0.006 ± 0.043 for the first, -0.187 ± 0.033 for the second.

First: K60F
Second: K60Q
The abundance fitness of the first is lower: -0.277 ± 0.047 for the first, -0.037 ± 0.038 for the second.

Going from K60M to S12K, the abundance fitness rises from -0.118 ± 0.038 to 0.011 ± 0.039.

S12I and A14I are within error of each other in abundance fitness: -0.032 ± 0.052 for the first, 0.039 ± 0.064 for the second.

A14L and A14M are within error of each other in abundance fitness: 0.042 ± 0.031 for the first, 0.033 ± 0.043 for the second.

A14N and K65N are within error of each other in abundance fitness: -0.061 ± 0.058 for the first, -0.129 ± 0.046 for the second.

Going from K65V to K65S, the abundance fitness falls from -0.037 ± 0.031 to -0.102 ± 0.03.

First: K65F
Second: E66P
The abundance fitness of the first is higher: -0.241 ± 0.049 for the first, -0.476 ± 0.049 for the second.

E66Q and V37N are within error of each other in abundance fitness: -0.07 ± 0.036 for the first, -0.065 ± 0.05 for the second.

V37R and V37C are within error of each other in abundance fitness: -0.019 ± 0.026 for the first, 0.009 ± 0.04 for the second.

V37S and Q40W are within error of each other in abundance fitness: -0.048 ± 0.031 for the first, -0.086 ± 0.039 for the second.

Q40K and Q40D are within error of each other in abundance fitness: -0.025 ± 0.041 for the first, -0.008 ± 0.05 for the second.

Q40R and Q40V are within error of each other in abundance fitness: -0.053 ± 0.028 for the first, -0.052 ± 0.032 for the second.

Going from I25M to I25V, the abundance fitness falls from 0.03 ± 0.048 to -0.125 ± 0.034.

Going from G1Q to G1A, the abundance fitness rises from -0.26 ± 0.13 to -0.075 ± 0.039.

G1C and G1S are within error of each other in abundance fitness: -0.127 ± 0.053 for the first, -0.14 ± 0.045 for the second.

Compared with Q29P, Q29L is higher in abundance fitness: -0.748 ± 0.044 for the first, -0.45 ± 0.033 for the second.

Q29T and Q29K are within error of each other in abundance fitness: -0.247 ± 0.038 for the first, -0.189 ± 0.04 for the second.

First: Q29W
Second: Q29Y
The abundance fitness of the first is higher: -0.345 ± 0.036 for the first, -0.67 ± 0.072 for the second.

D57C and D57N are within error of each other in abundance fitness: -0.093 ± 0.045 for the first, -0.083 ± 0.043 for the second.

Going from D57W to D57P, the abundance fitness rises from -0.387 ± 0.037 to -0.018 ± 0.039.

D57M and D57V are within error of each other in abundance fitness: -0.138 ± 0.038 for the first, -0.085 ± 0.029 for the second.

I18C and I18Y are within error of each other in abundance fitness: -0.12 ± 0.046 for the first, -0.106 ± 0.057 for the second.

Going from I18K to I18E, the abundance fitness rises from -0.117 ± 0.039 to -0.028 ± 0.035.

Compared with I18L, I18D is lower in abundance fitness: 0.008 ± 0.031 for the first, -0.152 ± 0.045 for the second.

I18M and I18H are within error of each other in abundance fitness: -0.065 ± 0.041 for the first, -0.009 ± 0.046 for the second.

I9W and I9S are within error of each other in abundance fitness: -0.964 ± 0.049 for the first, -0.913 ± 0.045 for the second.

First: I9L
Second: I9P
The abundance fitness of the first is higher: -0.087 ± 0.029 for the first, -0.905 ± 0.055 for the second.

Compared with V68I, V68H is lower in abundance fitness: -0.023 ± 0.044 for the first, -0.495 ± 0.055 for the second.

Going from V68G to V68Y, the abundance fitness falls from -0.48 ± 0.031 to -0.753 ± 0.067.

Going from V61I to V61P, the abundance fitness falls from -0.091 ± 0.05 to -0.758 ± 0.044.

Compared with V61C, V61L is lower in abundance fitness: -0.062 ± 0.042 for the first, -0.286 ± 0.031 for the second.

First: V61T
Second: V61F
The abundance fitness of the first is higher: -0.154 ± 0.034 for the first, -0.599 ± 0.063 for the second.

V61E and M36D are within error of each other in abundance fitness: -0.787 ± 0.049 for the first, -0.709 ± 0.065 for the second.

First: M36I
Second: M36S
The abundance fitness of the first is higher: -0.053 ± 0.047 for the first, -0.556 ± 0.035 for the second.

M36V and M36C are within error of each other in abundance fitness: -0.231 ± 0.032 for the first, -0.239 ± 0.042 for the second.

Going from M36W to M36A, the abundance fitness rises from -1 ± 0.052 to -0.194 ± 0.032.

First: M36T
Second: M36K
The abundance fitness of the first is higher: -0.585 ± 0.042 for the first, -0.78 ± 0.06 for the second.

Compared with M36R, N2P is higher in abundance fitness: -0.747 ± 0.033 for the first, -0.028 ± 0.038 for the second.

Compared with N2D, N2L is higher in abundance fitness: -0.224 ± 0.047 for the first, 0.09 ± 0.033 for the second.

First: N2I
Second: G47D
The abundance fitness of the first is higher: 0.168 ± 0.047 for the first, -0.043 ± 0.041 for the second.

G47Q and G47T are within error of each other in abundance fitness: -0.027 ± 0.041 for the first, -0.018 ± 0.035 for the second.

Compared with G47I, G47M is higher in abundance fitness: -0.168 ± 0.057 for the first, -0.043 ± 0.042 for the second.

Q62H and Q62N are within error of each other in abundance fitness: -0.069 ± 0.047 for the first, -0.097 ± 0.044 for the second.

First: Q62C
Second: E6N
The abundance fitness of the first is higher: -0.037 ± 0.041 for the first, -0.146 ± 0.047 for the second.

With E6W the abundance fitness was -0.082 ± 0.033.
